Assay results published in paper PMC11784312 (2024).

Assays:
Test in all cases: ELISA
[1] = molecular target: hemagglutinin of A/duck/Guangxi/SDY129/2014 (H7N9) (influenza A virus …)
[2] = molecular target: hemagglutinin of A/chicken/Yunnan/SD193/2017 (H7N9) (influenza A virus …)
[3] = molecular target: hemagglutinin of A/chicken/Guangdong/SD008/2017 (H7N9) (influenza A virus …)
[4] = molecular target: hemagglutinin of A/pigeon/Shanghai/S1069/2013 (H7N9) (influenza A virus …)

B1: 1H9 neutralizing antibody (antibody, V domains shown)
VH: VQLQESGPGLVKPSQSLSLTCTVTGYSITSDYTWNWIRQFPGNKLEWMGYITYSDTTSYNPSLKSRISITRDTSKNQFFLQLNSVTTEDTATYYCARSDGWYGFAYWGQGTLVTVSA
VL: DIQMNQSPSSLSASLGDTITITCHASQNINVWLSWYQQKPGNIPKLLIYKAFDLHTGVPSRFSGSGSGTGFTLTISSLQPEDIATYYCQQGQTYPFTFGGGTKLEIK
Work on B1 yielded an EC50 [1] of 0.0808 mg/L, an EC50 [2] of 0.195 mg/L and an EC50 [3] of 0.0861 mg/L. For the same binder, the EC50 [4] was 0.0837 mg/L.

B2: 2D7 neutralizing antibody (antibody, V domains shown)
VH: VQLQESGPGLVKPSQSLSLTCTVTGYSITSDYTWNWIRQFPGNKLEWMGYISYSGSTSYNPSLKSRMSITRDTSKNQFLLQLNSVTTADTATYYCTRDGPYWHIDVWGAGTTVTVSS
VL: DIQMNQSPSSLSASLGDTITITCHASQTINIWLSWYQLKPGNIPKLLIYKASNLHTGVPSRFSGSGSGTGFTLTISSLQPEDIASYYCQQGQSFPYTFGGGTKLEIK
B2 gave an EC50 [1] of 0.0535 mg/L, an EC50 [2] of 0.0539 mg/L and an EC50 [3] of 0.0561 mg/L. The EC50 [4] was 0.0857 mg/L.
